# According to the supplement of paper PMC10567573:
# B1: FBXO3 (parent)
# chain: FIDTYSDVGRYIDHYAAIKKAWDD
# B2: FEM1A (parent)
# chain: PCCSSSPEEPLNGESYESCCPTSR
# Variants of: B1
# Assay: protein stability index of a GFP-peptide fusion (GPS, HEK-293T) (PSI 1-6); higher = more stable
# Details: c terminus: a fixed tail appended
# 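Also: lentivirally expressed fusions sorted by FACS into six bins by GFP to DsRed ratio, PSI derived from sequencing read proportions per bin multiplied by bin number.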
row,Variant,protein stability index
1,D24V,2.6
2,D24N,1.54
3,D24R,1.99
4,D24S,1.44
5,D24P,2.28
6,D24T,2.51
7,D24Q,2.39
8,D24Y,2.19
9,D24W,2.07

# Variants of: B2
# Assay: as above
# Details: c terminus: a fixed tail appended
row,Variant,protein stability index
1,S4Q,3.67
2,S4H,4.21
3,S4C,1.94
4,S4L,2.98
5,S4N,3.95
6,S4D,4.42
7,S4R,3.14
8,S4E,3.87
9,S4T,4.13
10,S4M,3.19
11,S4A,3.72
12,S4Y,3.37
13,S4G,3.5
14,S4P,4.58
15,S4W,3.85
16,S4V,4.1
17,S4F,3.33
18,S4I,3.81
19,S4K,3.65
20,E8G,3.06
21,E8Y,2.65
22,E8D,3.51
23,E8Q,3.4
24,E8N,3.35
25,E8V,2.38

row,Variant,protein stability index
1,E8K,2.69
2,E8R,2.88
3,E8F,2.37
4,E8H,3.33
5,E8C,3.45
6,E8T,3.03
7,E8L,2.81
8,E8W,1.63
9,E8P,3.47
10,E8M,2.48
11,E8I,3.06
12,E8A,2.87
13,S6H,3.4
14,S6M,3.57
15,S6A,3.22
16,S6Q,4.11
17,S6L,2.91
18,S6K,3.18
19,S6I,3.7
20,S6E,4.01
21,S6R,3.66
22,S6T,3.93
23,S6Y,2.97
24,S6N,3.81
25,S6V,3.8

row,Variant,protein stability index
1,S6D,3.92
2,S6F,3.13
3,S6W,3.27
4,S6P,3.76
5,S6C,3.63
6,S6G,3.53
7,S5W,3.02
8,S5Q,3.6
9,S5P,3.49
10,S5Y,2.6
11,S5D,4.85
12,S5H,4.12
13,S5K,2.85
14,S5A,3.49
15,S5T,3.9
16,S5V,4.45
17,S5I,3.4
18,S5G,3.66
19,S5F,2.48
20,S5M,2.53
21,S5R,3.28
22,S5N,3.47
23,S5C,3.38
24,S5E,4.24
25,S5L,3.02

row,Variant,protein stability index
1,C2T,5.23
2,C2Y,4.62
3,C2S,4.21
4,C2P,5.66
5,C2I,3.92
6,C2D,5.12
7,C2Q,4.89
8,C2L,4.75
9,C2F,4.55
10,C2W,4.37
11,C2H,4.79
12,C2V,5.21
13,C2N,5.15
14,C2E,4.77
15,C2M,4.98
16,C2G,4.19
17,C2K,4.65
18,G13V,3.51
19,G13H,4.14
20,G13K,4.05
21,G13R,3.96
22,G13I,3.42
23,G13Q,4.43
24,G13T,3.75
25,G13N,3.46

row,Variant,protein stability index
1,G13M,3.29
2,G13E,5.17
3,G13F,3.26
4,G13L,3.63
5,G13P,4.01
6,G13Y,3.01
7,G13W,2.79
8,G13A,4.14
9,G13S,3.75
10,G13C,3.54
11,G13D,4.43
12,P10R,3.82
13,P10F,3.5
14,P10M,3.73
15,P10W,2.25
16,P10D,4.17
17,P10A,4.07
18,P10T,3.1
19,P10C,3.46
20,P10V,3.73
21,P10S,3.91
22,P10L,3.41
23,P10Y,3.14
24,P10E,3.7
25,P10K,3.5

row,Variant,protein stability index
1,P10N,2.96
2,P10Q,3.65
3,P10H,3.46
4,P10I,3.6
5,E14K,2.9
6,E14S,3.14
7,E14R,3.62
8,E14Q,3.33
9,E14A,3.77
10,E14D,3.77
11,E14G,2.24
12,E14W,2.57
13,E14L,3.01
14,E14F,2.71
15,E14Y,2.41
16,E14I,2.88
17,E14C,2.86
18,E14H,3.81
19,E14N,3.66
20,E14P,3.41
21,E14V,2.8
22,E14M,2.99
23,E14T,2.94
24,S15C,3.47
25,S15I,3.66

row,Variant,protein stability index
1,S15H,3.92
2,S15E,3.61
3,S15W,2.85
4,S15L,3.07
5,S15Q,3.52
6,S15G,3.88
7,S15N,3.62
8,S15D,4.61
9,S15F,2.63
10,S15V,3.81
11,S15P,4.14
12,S15K,3.68
13,S15Y,3.17
14,S15M,3.12
15,S15A,3.98
16,S15T,2.69
17,S15R,3.51
18,C3G,4.91
19,C3D,5.82
20,C3A,4.02
21,C3L,4.76
22,C3N,4.75
23,C3T,5.06
24,C3M,5.05
25,C3P,4.95

row,Variant,protein stability index
1,C3H,4.85
2,C3R,4.23
3,C3V,5
4,C3Y,4.66
5,C3Q,5.4
6,C3F,4.83
7,C3W,4.79
8,C3S,5.22
9,C3E,5.27
10,C3K,4.7
11,C3I,4.19
12,E9F,2.87
13,E9P,3.36
14,E9T,3.34
15,E9H,3.67
16,E9W,2.02
17,E9D,3.64
18,E9M,2.69
19,E9L,2.69
20,E9C,3.21
21,E9Q,3.52
22,E9Y,2.77
23,E9R,3.35
24,E9G,3.67
25,E9K,3.41

row,Variant,protein stability index
1,E9A,3.39
2,E9N,3.64
3,E9I,3.33
4,E9V,3.08
5,E9S,2.88
6,Y16T,4.37
7,Y16G,3.9
8,Y16L,3.84
9,Y16F,3.97
10,Y16N,3.97
11,Y16R,3.35
12,Y16S,3.7
13,Y16H,4.59
14,Y16W,3.2
15,Y16P,4.61
16,Y16A,3.55
17,Y16I,3.73
18,Y16E,4.69
19,Y16K,3.68
20,Y16V,4.35
21,Y16C,4.27
22,Y16M,3.83
23,Y16Q,4.55
24,Y16D,4.57
25,S18C,4.24

row,Variant,protein stability index
1,S18F,2.89
2,S18D,4.23
3,S18I,3.03
4,S18K,3.64
5,S18H,3.74
6,S18A,4.71
7,S18E,4
8,L11N,4.57
9,L11Y,3.55
10,L11E,3.5
11,L11V,4.2
12,L11A,4.52
13,L11K,3.77
14,L11G,3.81
15,L11W,2.82
16,L11H,4.2
17,L11C,3.54
18,L11T,4.11
19,L11S,3.84
20,L11Q,3.86
21,L11D,3.94
22,L11P,4.08
23,L11M,3.79
24,L11F,3.75
25,L11R,3.93

row,Variant,protein stability index
1,L11I,3.72
2,N12G,3.88
3,N12I,4.22
4,N12E,4.42
5,N12M,3.98
6,N12C,3.43
7,N12V,3.58
8,N12K,2.97
9,N12L,4.04
10,N12D,4.86
11,N12S,4.38
12,N12A,3.71
13,N12Q,3.32
14,N12Y,3.96
15,N12F,3.01
16,N12R,3.48
17,N12H,3.48
18,N12P,2.66
19,N12W,3.03
20,N12T,3.89
21,P1A,4.21
22,P1Y,3.26
23,P1F,3.17
24,P1C,1.83
25,P1M,3.67

row,Variant,protein stability index
1,P1R,3.47
2,P1W,2.77
3,P1S,3.54
4,P1D,4.55
5,P1G,4.6
6,P1I,3.97
7,P1E,4.44
8,P1L,3.69
9,P1T,3.6
10,P1N,3.96
11,P1V,3.84
12,P1K,2.47
13,P1H,3.85
14,P1Q,3.95
15,E17C,4.12
16,E17P,3.7
17,E17Y,2.52
18,E17F,3.55
19,E17G,3.43
20,E17S,2.51
21,E17V,2.87
22,E17A,3.04
23,E17I,2.83
24,E17M,3.44
25,E17H,3.44

row,Variant,protein stability index
1,E17N,3.37
2,E17T,3.56
3,E17R,2.67
4,E17K,3.25
5,E17W,1.72
6,E17L,2.37
7,E17D,3.81
8,P7Q,4.44
9,P7N,3.14
10,P7S,3.62
11,P7C,3.67
12,P7A,3.34
13,P7M,3.11
14,P7G,3.38
15,P7E,3.93
16,P7T,3.29
17,P7L,3.07
18,P7H,3.37
19,P7K,3.65
20,P7V,4.45
21,P7W,2.44
22,P7Y,3.02
23,P7D,4.65
24,P7F,3.51
25,P7I,3.03
